From paper doi:10.1101/2023.10.23.563616
Blank lines part the entries; values can stand above or below the substance they belong to.

What was measured:
[1] = biological target: His-tagged TclI N-terminal domain (residues 1-85) (M. caseolyticus)
[2] = biological target: a tagged version of TclJ or TclN; assay: pull-down; nickel copurification: TclI, TclJ and TclN all co-expressed in E. coli, one of them His6-tagged; lysate on Ni-NTA agarose beads, 4°C, 50 mM HEPES pH 7.8, 300 mM NaCl, 60 mM imidazole; SDS-PAGE with Coomassie stain
[3] = biological target: N-terminally His-tagged TclI (M. caseolyticus); assay: SEC; purified TclIJN complex (TclI, TclJ and TclN as a mixture); Yarra 1.8 μm X150 column, 100 mM sodium phosphate pH 6.8, 0.023% NaN3, 25 °C, 1 μg/μL

percentage of TclE peptides fully modified (six thiazoles) by LC-MS after co-expression of GST-TclE Δ18 with TclI, TclJ and TclN in E. coli [1]: 71.6%
Substance: GST-TclE Δ18 leader truncation (peptide)

stoichiometry N (TclI per tagged enzyme (densitometry)) [2]: 2 to 8
Substance: TclI (untagged) (natural protein)

stoichiometry N (TclI per TclJ) [3]: 2
Substance: TclJ (untagged) (enzyme)

stoichiometry N (TclI per TclN) [3]: 2
Substance: TclN (untagged) (enzyme)
